In US20060234285A1 (Human Genome Sciences, published 2006):

Experiments:
Assay in all cases: flow cytometry on transiently transfected cells
[1] = biological target: T1, TNFR2, on transiently transfected cells (UniProt P20333 23-461, limits assumed)
T1 construct: whole, on cells
T1 sequence (looked up): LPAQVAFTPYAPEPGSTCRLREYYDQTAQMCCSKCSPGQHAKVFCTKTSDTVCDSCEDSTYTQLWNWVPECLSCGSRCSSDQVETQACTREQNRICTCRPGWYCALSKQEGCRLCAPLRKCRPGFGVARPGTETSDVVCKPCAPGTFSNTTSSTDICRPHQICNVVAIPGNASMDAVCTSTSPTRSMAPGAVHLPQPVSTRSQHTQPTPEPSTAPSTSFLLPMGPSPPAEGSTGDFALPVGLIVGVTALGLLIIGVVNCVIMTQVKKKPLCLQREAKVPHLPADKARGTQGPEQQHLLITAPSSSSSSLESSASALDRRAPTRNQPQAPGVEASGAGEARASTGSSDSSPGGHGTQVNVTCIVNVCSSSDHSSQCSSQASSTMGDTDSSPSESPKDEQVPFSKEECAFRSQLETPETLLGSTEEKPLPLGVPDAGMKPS
Protocol: (§1) One million cells, in 0.1 ml of FACS buffer (PBS, 0.1% BSA, 0.1% NaN₃), were incubated with 0.1-1 microgram of protein or antibody at RT for 15 min. The cells were washed with 3 ml of FACS buffer, reacted with biotinylated primary antibody, and stained with PE-conjugated secondary antibody at RT for 15 min. Cells were then washed again, resuspended in 0.5 microgram/ml of propidium iodide, and live cells were gated and analyzed on a FACScan using the CellQuest software (BD Biosciences).

[2] = biological target: T2, LTβR, on transiently transfected cells (UniProt P36941 31-435)
T2 construct: whole, on cells
T2 sequence (P36941 31-435): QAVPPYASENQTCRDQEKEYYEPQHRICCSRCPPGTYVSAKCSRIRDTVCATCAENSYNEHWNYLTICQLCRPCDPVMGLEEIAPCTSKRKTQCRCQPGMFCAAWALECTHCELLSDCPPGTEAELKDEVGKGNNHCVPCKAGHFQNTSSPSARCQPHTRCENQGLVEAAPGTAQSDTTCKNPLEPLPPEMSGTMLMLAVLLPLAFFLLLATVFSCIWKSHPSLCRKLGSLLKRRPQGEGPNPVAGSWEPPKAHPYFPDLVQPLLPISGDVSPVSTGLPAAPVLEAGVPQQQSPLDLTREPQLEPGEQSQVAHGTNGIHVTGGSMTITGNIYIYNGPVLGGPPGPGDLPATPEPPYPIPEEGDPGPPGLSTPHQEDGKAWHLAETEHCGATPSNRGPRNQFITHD
Protocol: as §1

[3] = biological target: T3, CD30, on transiently transfected cells (UniProt P28908 19-595, limits assumed)
T3 construct: whole, on cells
T3 sequence (looked up): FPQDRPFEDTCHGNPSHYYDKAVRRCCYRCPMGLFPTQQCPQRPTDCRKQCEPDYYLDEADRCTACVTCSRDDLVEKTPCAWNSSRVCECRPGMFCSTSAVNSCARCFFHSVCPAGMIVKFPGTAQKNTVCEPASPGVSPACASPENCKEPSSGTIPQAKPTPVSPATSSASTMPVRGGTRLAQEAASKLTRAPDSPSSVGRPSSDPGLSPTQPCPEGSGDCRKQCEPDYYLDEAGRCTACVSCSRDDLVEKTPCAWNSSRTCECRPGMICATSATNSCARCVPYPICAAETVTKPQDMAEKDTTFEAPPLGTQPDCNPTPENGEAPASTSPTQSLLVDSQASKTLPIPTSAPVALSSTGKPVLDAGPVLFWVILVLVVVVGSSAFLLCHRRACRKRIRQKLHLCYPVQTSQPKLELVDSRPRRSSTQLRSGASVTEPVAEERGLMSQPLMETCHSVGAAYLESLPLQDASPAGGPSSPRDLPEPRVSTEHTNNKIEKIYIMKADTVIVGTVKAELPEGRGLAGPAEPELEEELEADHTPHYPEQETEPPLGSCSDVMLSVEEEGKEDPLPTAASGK
Protocol: as §1

[4] = biological target: T4, DR6, on transiently transfected cells (UniProt O75509 42-655, limits assumed)
T4 construct: whole, on cells
T4 sequence (looked up): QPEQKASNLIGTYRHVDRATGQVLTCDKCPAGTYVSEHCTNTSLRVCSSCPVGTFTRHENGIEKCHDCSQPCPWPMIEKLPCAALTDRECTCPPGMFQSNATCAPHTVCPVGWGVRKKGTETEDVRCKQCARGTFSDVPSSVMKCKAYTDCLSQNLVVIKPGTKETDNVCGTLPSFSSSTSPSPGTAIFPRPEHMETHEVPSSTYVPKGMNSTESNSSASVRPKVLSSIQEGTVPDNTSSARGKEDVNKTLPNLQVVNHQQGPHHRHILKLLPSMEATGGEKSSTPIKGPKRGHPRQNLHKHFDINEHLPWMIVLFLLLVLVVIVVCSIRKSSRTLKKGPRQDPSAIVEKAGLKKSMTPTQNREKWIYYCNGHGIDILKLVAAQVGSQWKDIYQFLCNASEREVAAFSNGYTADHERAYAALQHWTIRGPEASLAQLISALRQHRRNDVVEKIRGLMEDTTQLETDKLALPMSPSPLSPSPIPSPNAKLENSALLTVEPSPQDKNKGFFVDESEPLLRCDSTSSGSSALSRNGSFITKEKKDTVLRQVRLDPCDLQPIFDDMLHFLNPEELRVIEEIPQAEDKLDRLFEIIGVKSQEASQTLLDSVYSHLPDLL
Protocol: as §1

[5] = biological target: T5, HveA, on transiently transfected cells (UniProt Q92956 39-283, limits assumed)
T5 construct: whole, on cells
T5 sequence (looked up): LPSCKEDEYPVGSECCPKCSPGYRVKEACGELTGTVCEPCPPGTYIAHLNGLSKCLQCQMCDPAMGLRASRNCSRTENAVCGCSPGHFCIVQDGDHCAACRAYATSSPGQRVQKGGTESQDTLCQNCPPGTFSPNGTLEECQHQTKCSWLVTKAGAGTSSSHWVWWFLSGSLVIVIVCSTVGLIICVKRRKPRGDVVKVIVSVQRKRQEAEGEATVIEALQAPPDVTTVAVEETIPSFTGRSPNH
Protocol: as §1

Measured: binding result

B1: FLAG-tagged soluble form of TNF-gamma-beta (aa 72-251) (ligand, human, UniProt O95150 72-251, looked up, not shown: small tags and cut ends)
chain: LKGQEFAPSHQQVYAPLRADGDKPRAHLTVVRQTPTQHFKNQFPALHWEHELGLAFTKNRMNYTNKFLLIPESGDYFIYSQVTFRGMTSECSEIRQAGRPNKPDSITVVITKVTDSYPEPTQLLMGTKSVCEVGSNWFQPIYLGAMFSLQEGDKLMVNVSDISLVDYTKEDKTFFGAFLL
notes: also called FLAG-TL1β; FLAG-TNF-gamma-beta
no binding: [1] | [2] | [3] | [4] | [5]
